From the RNAGym collection of RNA variant scans (doi:10.1073/pnas.2313332121)

B1: TPR t1 (parent)
chain: GACCAAUCUGCCCUCAGAGCUCGAGAACAUCUUCGGAUGCAGAGGAGGCAGGCUUCGGUGGCGCGAUAGCGCCAACGUCCUCAACCUCCAAUGCAUCCCACCACAUGAUGAUGCCUGAAGAGCCUUGGUUUUUUG

Variants of: B1
Experiment: polymerase ribozyme fitness, log enrichment relative to wild type (log ratio); higher = more active; in vitro selection for triplet polymerase activity
Summary of the method: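 Mutant libraries for each subunit of a heterodimeric triplet polymerase ribozyme were made by PCR and then transcribed. Each library underwent one round of in vitro selection in triplicate: annealing with a biotinylated primer, the partner subunit and triplets, frozen incubation at −7 °C, gel excision of extended constructs, streptavidin-bead capture and RT-PCR. Input and output libraries were Illumina-sequenced, and only genotypes with ≥10 input reads and ≥1 read per output were kept. Fitness is the logarithm, base 2, of genotype enrichment over wild-type enrichment, computed from inverse-variance-weighted replicate averages.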

Row | Variant | polymerase ribozyme fitness (log ratio)
1 | C11A C85U G120U | 0.755
2 | G10U C15G | -1.83
3 | C11A C73U | -1.2
4 | C11G A27U C49A G61C A75U A84G | -3.81
5 | C11G C64A | -5.88
6 | G10A C97U C101U A105G U130G | -5.15
7 | C11G C13G G45A G117A | -1.92
8 | C11G C22G G36A A83C | -3.71
9 | C11G C22A A26C C102A | -5.19
10 | C11A C62U | -1.47
11 | C11A C62G | -2.04
12 | C11A C62A | -2.86
13 | C11G A29C U55G A84G G113A | -4.47
14 | C11G C15U G45A C73A A83U | -1.42
15 | G10U A95U G128A | -3.44
16 | C11A G120U | 0.0217
17 | C11A C99A C123A | -5.29
18 | C11G A111G G120C G127U | 0.661
19 | G10C U30C G71A G117A | -5.64
20 | C11G C34G C49U U106C C115G C124G | -6.56
21 | G10A C102A | -1.65
22 | G10C G52U C53A | -1.16
23 | G10C G42C | -2.24
24 | G10C U59G C88A C104A | -3.65

Row | Variant | polymerase ribozyme fitness (log ratio)
25 | C11A A66U G71A A121C U130A | -1.61
26 | G10C C13A G58A G71A C98U | -3.11
27 | G10U C22U A46G U54G C56G G61A A74U U92A C114A U116A | -6.68
28 | C11A G36A G61U G128A | -4.02
29 | G10U C28U C53U C73U U96C C104A G110A | 0.843
30 | C11G A37C A41C C101A A121C G122U | -1.01
31 | C11G C40A C72U C101U C104U | -1.72
32 | G10U C22G C56U C72U A90G C114U | -3.41
33 | G10C C15A G39C | -4.62
34 | G10C G48C C102U | -2.77
35 | C11G C13G C56U G93A | -0.689
36 | C11A A37U G63C U116G | -5.29
37 | C11A G52A G110U G135U | -5.37
38 | C11A A46U C64A G113U | -6.19
39 | G10A G63A | -0.758
40 | C11A G69U C70U | -2.77
41 | C11A G71C G113A | -2.46
42 | G10A G44U U54C G63A C70A U130C | -4.01
43 | G10A C49A G93U U112G | -1.97
44 | C11G C70A A95C U112A U132C | -1.46
45 | G10C C11U C104A | -0.93
46 | C11G A24G C49G U59G | -2.66
47 | C11A G48A C62U G128C | -3
48 | C11A G69U G120A U132A | 2

Row | Variant | polymerase ribozyme fitness (log ratio)
49 | G10C A46G C124U | -0.222
50 | C11A C12U C40A C56U C89A G122U | -2.66
51 | C11G A74U A108G | -2.79
52 | G10A U133G | -0.322
53 | C11G C15A G19U G69C C98A C114U | -6.19
54 | C11A G113C | -2.93
55 | G10U A43G G47A A74G | -3.06
56 | C11G C73U U96A | -0.543
57 | G10U C13G C73U G122U | -0.626
58 | C11G C62A U106A | -0.272
59 | C11A A111C | -1.42
60 | C11A G93C C102A | -3.43
61 | G10U C13U G57C G58U C88U G107A C123U | -6.52
62 | G10A C22G G57C | -2.92
63 | G10U G42U G69U C115A | -1.2
64 | C11A A27C | -5.15
65 | G10C C20A G39C A46C | -5.66
66 | C11A U81A | -2.74
67 | C11A A27U C34A C72G C97A G120U G127A U129C | -6
68 | G10U G61A | 0.0248
69 | C11G C49A G61A | 1.07
70 | C11A C72U A75G U129A | -3.18
71 | C11A C12A C62U C102A C115U U130G | -8.31
72 | C11A A18U | -3

Row | Variant | polymerase ribozyme fitness (log ratio)
73 | C11A A18C | -3.94
74 | G10C U78C | -1.63
75 | G10U C70U A83U A90G C115U | -2.59
76 | G10A U109A U133G | -7.59
77 | G10U G44C G61C | -3.37
78 | G10A C80U | -0.522
79 | C11G C53U C82U | 0.05
80 | G10A C20G A41C G48A G69U A84G | -3.37
81 | G10A G120U G135C | 1.62
82 | G10U G52U U96G | -0.544
83 | G10U C114U | -2.39
84 | G10C G35A G69U U81G C82G C123A | -2.07
85 | C11A C40G | -3.12
86 | G10U G60U | -0.931
87 | C11G C20U | -0.656
88 | G10U A84G C86A | -0.969
89 | C11A G42U G61U C114G U130A U132G | -4.29
90 | C11A C22U | -5.15
91 | C11G C15A U106A G117U G127U | -0.216
92 | C11A C70U C76A | -3.78
93 | C11G C79U | -0.0995
94 | G10A G47C G51C U59G U81C C115A | -5.77
95 | C11A G19C G57U | -5.03
96 | G10U G47U A74G G113U C123G U126A | -3.52

Row | Variant | polymerase ribozyme fitness (log ratio)
97 | G10U U38G A41G | -1.27
98 | G10C A27U G39U | -3.03
99 | G10U A111U | -3.44
100 | C11A C12A C22A C40U A46U U78C C114A | -6.96
101 | G10U G17U G45A C85U C123G | -0.92
102 | G10U G48C | -0.778
103 | G10C G42C G44U C72U U87G | -5.88
104 | C11G C64U C114G C115A C123G C124A | -4.26
105 | C11A C85U U133G | -2.41
106 | C11G A27G G39U G107U A121G U125G | -6.41
107 | G10U U14A C53G A95U G120U | 0.647
108 | G10A C53G G69U C88U G110U | -0.0648
109 | C11A C15A A37G C40A G120U | -6.11
110 | C11A C15U G48U A90G U112A | -2.88
111 | G10U U21G C64A A95G C123U U125A | -6.83
112 | G10U G39C | -0.652
113 | C11G A18U A46U G57A | -4.09
114 | C11G C72G | -0.147
115 | G10U A46U C73U C88A U133A | -2.31
116 | G10A G63A U130G | -0.867
117 | G10U A37U G52U C56U C73G U116G | -4.51
118 | C11A G71A G77A C82G | -3.86
119 | G10A C40A A111C | -1.11
120 | C11A C40U G48C C79U C102U | -5.15

Row | Variant | polymerase ribozyme fitness (log ratio)
121 | C11G A27G | -1.52
122 | C11A G58C C72U G122A U125A | -2.52
123 | G10A U96A | -0.657
124 | C11G C49U C72G | -0.598
125 | G10A G71A A83C U106A A108U | -1.78
126 | G10A C53G G61A A95G | -0.503
127 | G10U C11G G47C G58A C62G | -3.87
128 | G10U C101A U125G | -2.32
129 | C11A C13G U32C A50U G93U U96G U112A U131G | -4.75
130 | G10U C82G G110A | -1.83
131 | C11A C34G G45A C53U C70G C101A U106A G117C | -7.32
132 | G10C C73A C101U U130C | -0.689
133 | G10U A50C C80U G120U | -0.0895
134 | G10A C70G | -2.45
135 | G10A C70A | -1.32
136 | C11A A84U U92C C98U | -4.14
137 | G10C C20A | -3.95
138 | G10U A26U G45A | -2.84
139 | C11A C115U G122U | -0.883
140 | C11G C20U C22A G39C | -5.35
141 | G10U C53G G61C A84U | -1.21
142 | G10A G63A C86U | -1.07
143 | C11A C79U | -1.59
144 | G10C C89G A121C | 0.737

Row | Variant | polymerase ribozyme fitness (log ratio)
145 | C11A C53G C64U C97U C101G G135C | -3.13
146 | C11A U21G A41G A121U | -0.0986
147 | C11G C73G C101U U112C G117C | -3.04
148 | G10A C53A | -0.00777
149 | G10U G39U G77C A100C | -2.58
150 | C11G A46U G60U A74C A121U | -3.52
151 | G10U U14A | -1.65
152 | G10U A75U G77A C86A | -1.69
153 | G10U A18G A43C C72U C80U C85U G120U | -3.18
154 | C11A U59A | -1.59
155 | C11G C31U U55C A90G | -4.94
156 | C11G C15U C20U C70G | -3.71
157 | G10U U14A C73A A83U | -1.57
158 | G10U G35A G117C | -6.56
159 | C11A G36C | -2.32
160 | C11G C34A G61U C62U C80G C86U G120A | -6.66
161 | C11A U126A U129C | -2.33
162 | G10U G47U G110U G117U G122A | -4.52
163 | C11G A105U | -2.2
164 | G10C G42A G63U A91C G113A G122U | -4.47
165 | C11A G48C G71A U87G U106G A121U | -2.38
166 | G10C C11A C31A G47U G107U G113A | -2.42
167 | G10U C79A | -0.723
